Laboratory results published in US20250042994A1 (HAINAN SIMCERE ZAIMING PHARMACEUTICAL, published 2025).
Numbering of substitutions follows the chain as printed.

B1: F3.109.1 (antibody, human IgG1, V domains shown)
VH: EVQLQQSGAELVRPGSSVKMSCKTSGYTFTSYGINWVKQRPGQGLEWIGYIYIGNDYTEFNEKFKGKATLTSDTSSSTAYMQLSSLTSEDSAIYFCARFYSNSDPMDYWGHGTSVTVSS
VL: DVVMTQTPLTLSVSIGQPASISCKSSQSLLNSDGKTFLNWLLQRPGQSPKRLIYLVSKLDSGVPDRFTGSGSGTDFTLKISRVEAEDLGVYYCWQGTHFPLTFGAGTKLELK
notes: human-murine chimeric antibody, human IgG1
B2: F3.148.10 (antibody, human IgG1, V domains shown)
VH: B1 VH with K19T, S31N, Y52F, F60Y, A97T, S103Y, D104Y, P105G, Y108P, H111Q
VL: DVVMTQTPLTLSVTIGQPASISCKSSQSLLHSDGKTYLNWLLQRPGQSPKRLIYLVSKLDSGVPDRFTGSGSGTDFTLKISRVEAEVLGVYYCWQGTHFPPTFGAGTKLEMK
notes: as for B1
B3: F3.77.6 (antibody, human IgG1, V domains shown)
VH: EFQLQQSGPELVKPGASVKISCKASGYSFTDYNMNWVKQSNGKSLEWIGTINPNYITSYNQKFKGKATLTVDQSSSTAYMQLNSLTSEDSAVYYCAGDYKGYWGQGTTLTVSS
VL: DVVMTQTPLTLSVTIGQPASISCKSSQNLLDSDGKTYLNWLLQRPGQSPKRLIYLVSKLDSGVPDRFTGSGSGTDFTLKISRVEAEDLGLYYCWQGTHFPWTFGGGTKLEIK
notes: as for B1
B4: F5.3.6 (antibody, human IgG1, V domains shown)
VH: DVQLQESGPGLVKPSQSQSLTCSVTGYSITSGYYWNWIRQFPGNKLEWMGYISYDGSNNYNPSLKNRISITRDTSKNQFFLKLNSVTTEDTVTYYCARAPLTGDRYWYFDVWGTGTTVTVSS
VL: DIVLTQSPASLAVSLGQRATISCRASQSVSTSSYSYMHWYQQKPGQTPKLLIKYASNLKSGVPARFSGSGSGTDFTLNIHPVEEEDTATYYCQHSWEIPPTFGGGTKLEIK
notes: human-murine chimeric antibody, human IgG1 constant
B5: F5.2.9 (antibody, human IgG1, V domains shown)
VH: QVTLKESGPGILQPSQTLSLTCSFSGFSLSTFGLGVGWVRQPSGKGLEWLAHIWWDDDKYYNPALKSRVTVSKETSKNQVFFKIANVDTADSATYYCARLSRGLRRDVVYAMDHWGQGTSVTVSS
VL: DIQMTQTTSSLSASLGDRVTISCRASQDISNYLNWYQQKPDGSVKLLISYVSRLQSGVPSRFRGSGSGTDYSLTISNLDQEDIATYFCQQGIAFPYTFGGGTKLDIK
notes: as for B4
B6: F3.74.4 (antibody, human IgG1, V domains shown)
VH: QVQLQQSGAELVRPGASVTLSCKASGYTFTDYEMHWVKQTPVHGLEWIGGIAPETGLTTYNQKFEDKAILTADKSSRTAYMELRSLTSEDSAVYFCNPNNYGLWGTGTTVTVSS
VL: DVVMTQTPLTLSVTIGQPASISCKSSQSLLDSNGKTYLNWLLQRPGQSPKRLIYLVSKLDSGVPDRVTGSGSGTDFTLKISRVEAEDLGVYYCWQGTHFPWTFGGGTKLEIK
notes: as for B1
B7: F4.82.11 (antibody, human IgG1, V domains shown)
VH: QVTLKESGPGILQASQTLSLTCSFSGFSLSTFGIGVGWVRQPSGKGLEWLAHIWWNDNKFFNTTLKNRLTLSKDPSNNQVFLKIASVDTADTATYYCARSRSALITTGLYAMDYWGQGTSVTVSS
VL: DIQMTQTPSSLSASLGDRVTISCRSSQDISNYVNWYQQKPDGTVKVLINYTSRLHSGVPSRFSGSGSGTDYSLTISNLEQEDIASYFCQQGFTLPYTFGGGTKLEIK
notes: as for B4
B8: F5.8.6 (antibody, human IgG1, V domains shown)
VH: QVQLHQPGAELVMPGASVTLSCKASGYTFTSYWMHWVKQRPGQGLEWIGEIDPSDSYTTYDQKFKGKATLTVDKFSSTAYMQFSSLTSEDSAVYYCARLTGNHLDYWGQGTTLTVSS
VL: DIVMTQSHKFMSSSVGDRVSITCKASQDVSPAVAWYQQKPGQSPKLLIYSTSYRNTGVPDRFTGSGSGTDFTFTISSVQAEDLAVYYCQQHYSIPLTFGAGTKLELK
notes: as for B4
B9: F5.7.1 (antibody, human IgG1, V domains shown)
VH: QVTLKESGPGILQPSQTLSLTCSFSGFSLTTFGMGVGWIRQPSGKGLEWLTHIWWDDDKYYNPALKSRLTISKDTSKNQVFLRIANVDTADTATYYCARVITTGVPYFDYWGQGTTLTVSS
VL: ENVLTQSPAIMSASPGEKVTMTCRASSSVSSSYLYWYQQKSGASPKLWISSTSNLASGVPARFSGSGSGTSYSLTINSVEAEDAATYYCQQYSGYPWTFGGGTKLEIK
notes: as for B4

Experiments:
[1] = target: T1, murine CD19 protein (murine, UniProt P25918 17-287, limits assumed); assay: ELISA, coated murine CD19
T1 construct: bought protein; also called commercial murine CD19
T1 sequence (looked up): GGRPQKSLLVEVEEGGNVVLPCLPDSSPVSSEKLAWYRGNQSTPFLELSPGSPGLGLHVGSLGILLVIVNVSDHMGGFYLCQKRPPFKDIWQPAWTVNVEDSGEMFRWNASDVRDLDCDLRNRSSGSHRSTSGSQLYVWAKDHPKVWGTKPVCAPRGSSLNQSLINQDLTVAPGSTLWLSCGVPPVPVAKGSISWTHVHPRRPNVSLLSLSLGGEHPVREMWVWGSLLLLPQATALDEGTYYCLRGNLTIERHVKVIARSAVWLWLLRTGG
Method in brief: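 Plates coated overnight at 4° C with recombinant murine or monkey CD19 and blocked with 2% BSA. Chimeric antibodies, serially diluted from 100 nM, bound for 2 h at 37° C. TMB development for 10 min with OD450 read-out.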

[2] = target: T2, Human CD19-his protein (human, UniProt P15391 20-291); assay: ELISA, antibody at 10 nM
T2 construct: bought protein; also called human CD19 protein; recombinant human CD19-His; not shown: His tag
T2 sequence (looked up): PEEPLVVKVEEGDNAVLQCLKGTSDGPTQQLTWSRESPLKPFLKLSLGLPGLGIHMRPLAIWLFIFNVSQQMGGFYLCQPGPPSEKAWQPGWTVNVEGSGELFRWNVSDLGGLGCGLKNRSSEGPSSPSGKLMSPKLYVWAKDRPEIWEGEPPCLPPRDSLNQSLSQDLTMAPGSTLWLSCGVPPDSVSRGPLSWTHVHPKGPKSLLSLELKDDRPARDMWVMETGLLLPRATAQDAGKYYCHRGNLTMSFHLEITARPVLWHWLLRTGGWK

[3] = target: T2, Human CD19-his protein; assay: ELISA, antibody at 100 nM
[4] = target: T2, Human CD19-his protein; assay: ELISA, antibody at 0.01 nM
[5] = target: T2, Human CD19-his protein; assay: ELISA, antibody at 0.10 nM
[6] = target: T2, Human CD19-his protein; assay: ELISA, antibody at 1.00 nM
[7] = target: T2, Human CD19-his protein; assay: ELISA, antibody at 0.001 nM
[8] = target: T2, Human CD19-his protein; assay: ELISA, antibody at 0.0001 nM
[9] = target: T2, Human CD19-his protein; assay: ELISA on coated human CD19-His
Protocol: (§1) Human CD19-his protein (purchased from ACROBiosystems, catalog number: CD9-H52H2) was diluted with PBS to a final concentration of 4 μg/mL, and then added to a 96-well ELISA plate at 100 μl/well. The plate was sealed with a plastic film and incubated overnight at 4° C., the plate was washed 2 times with PBS the next day, and then a blocking solution [PBS+2% (w/w) BSA] was added for blocking at room temperature for 2 h. The blocking solution was poured off, and 100 nM gradiently diluted CD19 chimeric antibody or control antibody was added at 50 μl/well. After incubation at 37° C. for 2 h, the plate was washed 3 times with PBS. […] TMB substrate was added at 50 μl/well, and incubated at room temperature for 10 min, and then a stop solution (1.0 N HCl) was added at 50 μl/well. The OD450 nm values were read by an ELISA microplate reader (Multimode Plate Reader, EnSight, purchased from Perkin Elmer).

[10] = target: T3, human CD19 on Raji cells (human, UniProt P15391 20-556); assay: FACS on Raji cells
T3 construct: whole, on cells
T3 sequence (looked up): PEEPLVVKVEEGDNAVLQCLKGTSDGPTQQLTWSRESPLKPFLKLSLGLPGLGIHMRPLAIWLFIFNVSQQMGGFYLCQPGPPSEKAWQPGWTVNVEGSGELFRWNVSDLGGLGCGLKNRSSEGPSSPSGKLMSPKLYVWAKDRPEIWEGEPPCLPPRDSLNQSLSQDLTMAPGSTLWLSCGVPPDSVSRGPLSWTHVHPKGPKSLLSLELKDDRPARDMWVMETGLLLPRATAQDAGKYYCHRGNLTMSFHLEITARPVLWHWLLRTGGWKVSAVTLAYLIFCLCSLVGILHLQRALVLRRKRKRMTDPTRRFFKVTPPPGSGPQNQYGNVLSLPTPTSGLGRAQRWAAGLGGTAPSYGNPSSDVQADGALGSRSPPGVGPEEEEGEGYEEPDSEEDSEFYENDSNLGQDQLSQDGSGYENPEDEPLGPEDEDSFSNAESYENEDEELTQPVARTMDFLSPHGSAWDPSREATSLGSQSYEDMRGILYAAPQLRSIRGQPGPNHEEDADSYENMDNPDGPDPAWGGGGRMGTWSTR

[11] = target: T4, human CD19 on CHO-K1-human CD19 cells (human, UniProt P15391 20-556); assay: FACS on CHO-K1-human CD19 cells
T4 construct: whole, on cells; also called CHO-K1-human CD19-2C8
T4 sequence (looked up): T3 sequence (looked up)

[12] = target: T5, monkey CD19 protein (monkey); assay: ELISA, coated monkey CD19 protein
T5 construct: also called monkey CD19-His protein
Protocol: as §1
In order to detect the species cross-binding activity of the chimeric antibodies, an ELISA plate was coated with commercial murine CD19 (ACROBiosystems, catalog number: 50510-M08H) and monkey CD19 (ACROBiosystems, catalog number: 90051-C08H), respectively, and the ELISA detection was performed according to the method in example 5.1.

[13] = target: T6, monkey CD19 on HEK293T-monkey CD19 cells (monkey); assay: FACS on HEK293T-monkey CD19 cells
T6 construct: whole, on cells
Method in brief: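 Cells blocked in PBS + 2% (w/w) BSA at 2×10⁶ cells/ml, then incubated with test antibody on ice for 2 h. After washes, binding read by flow cytometry as mean fluorescence intensity (MFI). EC50 from fitted MFI curves. Parental HEK293T cells run by the same method.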

[14] = target: T7, human CD19 exon1-3-His tag protein (human, UniProt P15391 20-186, limits assumed); assay: ELISA on coated human CD19 exon 1-3-His
T7 construct: membrane-distal part of the extracellular region, made in HEK293E cells; not shown: His tag
T7 sequence (looked up): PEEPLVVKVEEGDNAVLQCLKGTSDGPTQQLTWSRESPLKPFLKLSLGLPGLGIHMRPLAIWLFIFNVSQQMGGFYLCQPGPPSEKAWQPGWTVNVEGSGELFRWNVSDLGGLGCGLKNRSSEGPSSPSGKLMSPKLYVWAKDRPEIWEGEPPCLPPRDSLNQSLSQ

[15] = target: T8, Human CD19-his protein (human, UniProt P15391 20-291); assay: SPR Biacore, Ab captured on Protein A, CD19-His analyte
T8 construct: bought protein; also called recombinant human CD19-His; CD19 full-length protein; not shown: His tag
T8 sequence (looked up): T2 sequence (looked up)
Method in brief: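 Antibodies were captured on a Protein A chip at 25 °C in HBS-EP+. Human CD19-His was injected for 240 s at 30 μl/min at 5 concentrations from 200 nM (1:1 dilutions), with dissociation up to 600 s. Data were double-referenced and fitted to a Langmuir 1:1 model for apparent KD.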

Binder	binding result [1]	OD450 [2]	OD450 [3]	OD450 [4]	OD450 [5]	OD450 [6]	OD450 [7]	OD450 [8]	EC50 (read off the curve) [9]	binding result [14]	Kd [15]	koff [15]	kon [15]	other results
B1	no binding	2.92	2.98	0.24	1.18	2.62	0.07	0.05	~0.2 nM	–	–	–	–	–
B2	–	–	–	–	–	–	–	–	–	–	–	–	–	EC50 [10]: 0.28 nM; Maximum mean fluorescence intensity [10]: 31800; EC50 [11]: 0.26 nM; Maximum mean fluorescence intensity [11]: 4700; OD450 at 0.0001 nM [12]: 0.06 OD450; OD450 at 0.001 nM [12]: 0.06 OD450; OD450 at 0.01 nM [12]: 0.07 OD450; OD450 at 0.10 nM [12]: 0.13 OD450; OD450 at 1.00 nM [12]: 0.78 OD450; OD450 at 10 nM [12]: 1.93 OD450; OD450 at 100 nM [12]: 2.47 OD450; Maximum mean fluorescence intensity [13]: 177
B3	no binding	2.98	2.94	0.3	1.33	2.69	0.08	0.05	~0.1 nM	–	–	–	–	–
B4	–	–	–	–	–	–	–	–	–	no binding (tested: 100 nM)	3.49 nM	0.000122 s⁻¹	35100 M⁻¹ s⁻¹	–
B5	–	–	–	–	–	–	–	–	–	no binding (tested: 100 nM)	15.7 nM	0.000402 s⁻¹	25700 M⁻¹ s⁻¹	–
B6	no binding	2.64	2.96	0.21	1.02	2.32	0.07	0.05	~0.2 nM	–	–	–	–	–
B7	–	–	–	–	–	–	–	–	–	no binding (tested: 100 nM)	22.7 nM	0.000774 s⁻¹	34100 M⁻¹ s⁻¹	–
B8	–	–	–	–	–	–	–	–	–	no binding (tested: 100 nM)	5.98 nM	0.00108 s⁻¹	181000 M⁻¹ s⁻¹	–
B9	–	–	–	–	–	–	–	–	–	no binding (tested: 100 nM)	1.18 nM	0.000225 s⁻¹	192000 M⁻¹ s⁻¹	–
